For 94 variants, protein stability index results are on record in the supplement of paper PMC10567573.

B1: VDR (parent)
chain: VTLELSQLSMLPHLADLVSYSIQK
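Also: lentivirally expressed fusions sorted by FACS into six bins by GFP to DsRed ratio, PSI derived from sequencing read proportions per bin multiplied by bin number.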

Variants of B1 are the subject of the series. Nature of the series: protein stability index of a GFP-peptide fusion (GPS, HEK-293T) (PSI 1-6); higher = more stable. The conditions noted are these: c terminus: a fixed tail appended.
With VTLEPSQLSMLPHLADLVSYSIQK [L5P], the protein stability index stood at 1.86.

With VTLEMSQLSMLPHLADLVSYSIQK [L5M], the protein stability index came out at 4.44.

In the case of VTLEQSQLSMLPHLADLVSYSIQK [L5Q], the protein stability index is 2.01.

In the case of VTLEDSQLSMLPHLADLVSYSIQK [L5D], the protein stability index was 2.1.

As to VTLEYSQLSMLPHLADLVSYSIQK [L5Y], the protein stability index was found to be 3.55.

In the case of VTLERSQLSMLPHLADLVSYSIQK [L5R], the protein stability index was found to be 2.5.

As for VTLEHSQLSMLPHLADLVSYSIQK [L5H], the protein stability index was determined as 2.33.

For the variant VTLEASQLSMLPHLADLVSYSIQK [L5A], the protein stability index turned out to be 2.12.

Take VTLETSQLSMLPHLADLVSYSIQK [L5T]: the protein stability index is 2.04.

Consider VTLEKSQLSMLPHLADLVSYSIQK [L5K], for which the protein stability index is 1.85.

Turning to VTLEWSQLSMLPHLADLVSYSIQK [L5W], the protein stability index came out at 2.81.

Regarding VTLENSQLSMLPHLADLVSYSIQK [L5N], the protein stability index stood at 1.93.

Take VTLEISQLSMLPHLADLVSYSIQK [L5I]: the protein stability index turned out to be 3.82.

For the variant VTLESSQLSMLPHLADLVSYSIQK [L5S], the protein stability index was 1.92.

For the variant VTLEGSQLSMLPHLADLVSYSIQK [L5G], the protein stability index was found to be 2.07.

For VTLELCQLSMLPHLADLVSYSIQK [S6C], the protein stability index worked out at 2.65.

On to VTLELHQLSMLPHLADLVSYSIQK [S6H], for which the protein stability index was determined as 3.94.

Regarding VTLELIQLSMLPHLADLVSYSIQK [S6I], the protein stability index is 2.48.

For VTLELAQLSMLPHLADLVSYSIQK [S6A], the protein stability index was found to be 2.88.

For VTLELKQLSMLPHLADLVSYSIQK [S6K], the protein stability index amounted to 1.81.

Turning to VTLELDQLSMLPHLADLVSYSIQK [S6D], the protein stability index is 2.16.

Regarding VTLELTQLSMLPHLADLVSYSIQK [S6T], the protein stability index stood at 1.28.

With VTLELVQLSMLPHLADLVSYSIQK [S6V], the protein stability index was 3.64.

Regarding VTLELGQLSMLPHLADLVSYSIQK [S6G], the protein stability index worked out at 3.13.

VTLELNQLSMLPHLADLVSYSIQK [S6N]: the protein stability index was 2.58.

As to VTLELRQLSMLPHLADLVSYSIQK [S6R], the protein stability index came to 1.52.

As to VTLELQQLSMLPHLADLVSYSIQK [S6Q], the protein stability index was found to be 2.54.

As for VTLELFQLSMLPHLADLVSYSIQK [S6F], the protein stability index came to 2.88.

Turning to VTLELMQLSMLPHLADLVSYSIQK [S6M], the protein stability index was 2.06.

As for VTLELLQLSMLPHLADLVSYSIQK [S6L], the protein stability index worked out at 3.3.

Consider VTLELWQLSMLPHLADLVSYSIQK [S6W], for which the protein stability index worked out at 2.88.

With VTLELYQLSMLPHLADLVSYSIQK [S6Y], the protein stability index was 2.27.

Regarding VTLELPQLSMLPHLADLVSYSIQK [S6P], the protein stability index came to 2.29.

Turning to VTLELEQLSMLPHLADLVSYSIQK [S6E], the protein stability index was 2.77.

For the variant VTLELSQLSMLFHLADLVSYSIQK [P12F], the protein stability index worked out at 1.44.

On to VTLELSQLSMLIHLADLVSYSIQK [P12I], for which the protein stability index was 3.14.

As for VTLELSQLSMLDHLADLVSYSIQK [P12D], the protein stability index was determined as 3.28.

Take VTLELSQLSMLGHLADLVSYSIQK [P12G]: the protein stability index came out at 2.02.

As for VTLELSQLSMLAHLADLVSYSIQK [P12A], the protein stability index came out at 2.4.

Consider VTLELSQLSMLCHLADLVSYSIQK [P12C], for which the protein stability index is 3.89.

On to VTLELSQLSWLPHLADLVSYSIQK [M10W], for which the protein stability index is 3.71.

For VTLELSQLSGLPHLADLVSYSIQK [M10G], the protein stability index turned out to be 2.09.

For VTLELSQLSPLPHLADLVSYSIQK [M10P], the protein stability index came to 2.64.

Turning to VTLELSQLSILPHLADLVSYSIQK [M10I], the protein stability index is 2.35.

VTLELSQLSELPHLADLVSYSIQK [M10E]: the protein stability index was 1.87.

As for VTLELSQLSCLPHLADLVSYSIQK [M10C], the protein stability index was 3.52.

As for VTLELSQLSLLPHLADLVSYSIQK [M10L], the protein stability index was 2.62.

As for VTLELSQLSFLPHLADLVSYSIQK [M10F], the protein stability index is 1.99.

In the case of VTLELSQLSSLPHLADLVSYSIQK [M10S], the protein stability index amounted to 1.96.

VTLELSQLSALPHLADLVSYSIQK [M10A]: the protein stability index amounted to 2.73.

Turning to VTLELSQLSYLPHLADLVSYSIQK [M10Y], the protein stability index worked out at 2.33.

Regarding VTLELSQLSTLPHLADLVSYSIQK [M10T], the protein stability index worked out at 2.87.

Consider VTLELSQLSKLPHLADLVSYSIQK [M10K], for which the protein stability index turned out to be 1.69.

Consider VTLELSQLSHLPHLADLVSYSIQK [M10H], for which the protein stability index worked out at 2.76.

In the case of VTLELSQLSQLPHLADLVSYSIQK [M10Q], the protein stability index was found to be 2.65.

VTLELSQLSDLPHLADLVSYSIQK [M10D]: the protein stability index amounted to 1.71.

As to VTLELSQLSRLPHLADLVSYSIQK [M10R], the protein stability index came out at 3.32.

With VTLELSQLSNLPHLADLVSYSIQK [M10N], the protein stability index is 2.14.

Take VTDELSQLSMLPHLADLVSYSIQK [L3D]: the protein stability index was determined as 2.09.

Regarding VTQELSQLSMLPHLADLVSYSIQK [L3Q], the protein stability index is 1.96.

As to VTHELSQLSMLPHLADLVSYSIQK [L3H], the protein stability index is 1.6.

Take VTCELSQLSMLPHLADLVSYSIQK [L3C]: the protein stability index turned out to be 1.99.

Regarding VTWELSQLSMLPHLADLVSYSIQK [L3W], the protein stability index is 4.09.

For VTMELSQLSMLPHLADLVSYSIQK [L3M], the protein stability index is 3.15.

For VTKELSQLSMLPHLADLVSYSIQK [L3K], the protein stability index is 1.16.

For the variant VTGELSQLSMLPHLADLVSYSIQK [L3G], the protein stability index worked out at 2.67.

Take VTRELSQLSMLPHLADLVSYSIQK [L3R]: the protein stability index came to 1.53.

As to VTVELSQLSMLPHLADLVSYSIQK [L3V], the protein stability index amounted to 2.45.

With VTSELSQLSMLPHLADLVSYSIQK [L3S], the protein stability index was 1.5.

As for VTIELSQLSMLPHLADLVSYSIQK [L3I], the protein stability index turned out to be 2.53.

As for VTPELSQLSMLPHLADLVSYSIQK [L3P], the protein stability index was found to be 2.49.

In the case of VTFELSQLSMLPHLADLVSYSIQK [L3F], the protein stability index was 1.95.

Take VTYELSQLSMLPHLADLVSYSIQK [L3Y]: the protein stability index came to 2.81.

Take VTAELSQLSMLPHLADLVSYSIQK [L3A]: the protein stability index worked out at 2.21.

As for VTNELSQLSMLPHLADLVSYSIQK [L3N], the protein stability index turned out to be 1.5.

In the case of VTEELSQLSMLPHLADLVSYSIQK [L3E], the protein stability index was 1.84.

In the case of VTTELSQLSMLPHLADLVSYSIQK [L3T], the protein stability index was found to be 1.97.

With VMLELSQLSMLPHLADLVSYSIQK [T2M], the protein stability index is 2.16.

As to VKLELSQLSMLPHLADLVSYSIQK [T2K], the protein stability index turned out to be 2.4.

Consider VRLELSQLSMLPHLADLVSYSIQK [T2R], for which the protein stability index stood at 4.52.

Turning to VVLELSQLSMLPHLADLVSYSIQK [T2V], the protein stability index came to 3.63.

VGLELSQLSMLPHLADLVSYSIQK [T2G]: the protein stability index turned out to be 1.76.

Take VQLELSQLSMLPHLADLVSYSIQK [T2Q]: the protein stability index stood at 2.22.

With VSLELSQLSMLPHLADLVSYSIQK [T2S], the protein stability index was found to be 3.12.

Take VDLELSQLSMLPHLADLVSYSIQK [T2D]: the protein stability index was found to be 1.6.

VHLELSQLSMLPHLADLVSYSIQK [T2H]: the protein stability index was found to be 2.06.

As for VWLELSQLSMLPHLADLVSYSIQK [T2W], the protein stability index amounted to 2.48.

Take VILELSQLSMLPHLADLVSYSIQK [T2I]: the protein stability index was 4.5.

For the variant VFLELSQLSMLPHLADLVSYSIQK [T2F], the protein stability index was determined as 3.02.

For VELELSQLSMLPHLADLVSYSIQK [T2E], the protein stability index came to 2.22.

With VLLELSQLSMLPHLADLVSYSIQK [T2L], the protein stability index amounted to 1.75.

For VCLELSQLSMLPHLADLVSYSIQK [T2C], the protein stability index was determined as 4.12.

Take VNLELSQLSMLPHLADLVSYSIQK [T2N]: the protein stability index worked out at 3.11.

VPLELSQLSMLPHLADLVSYSIQK [T2P]: the protein stability index was 1.42.
